Measured values: article PMC3086013 (Biochemistry, 2010)

B1: seipin-myc13 (yeast seipin fused to 13 tandem copies of the myc epitope) (natural protein, S. cerevisiae, UniProt Q06058 1-285, looked up)
chain: MKINVSRPLQFLQWSSYIVVAFLIQLLIILPLSILIYHDFYLRLLPADSSNVVPLNTFNILNGVQFGTKFFQSIKSIPVGTDLPQTIDNGLSQLIPMRDNMEYKLDLNLQLYCQSKTDHLNLDNLLIDVYRGPGPLLGAPGGSNSKDEKIFHTSRPIVCLALTDSMSPQEIEQLGPSRLDVYDEEWLNTIRIEDKISLESSYETISVFLKTEIAQRNLIIHPESGIKFRMNFEQGLRNLMLRKRFLSYIIGISIFHCIICVLFFITGCTAFIFVRKGQEKSKKHS
B2: seipin-mCherry (yeast seipin tagged at its carboxy terminus with mCherry) (natural protein, S. cerevisiae, UniProt Q06058 1-285, looked up)
chain: B1 chain

Molecular target: the molecule itself
Assay: velocity sedimentation on H2O- and D2O-sucrose gradients + SEC

Protein	stoichiometry N
B1	9.4 subunits/complex
B2	8.7 subunits/complex
